Numbering of substitutions follows the chain as printed.
B1: GTGCAC_site10274 (dsDNA)
DNA 1: CAACCTTTTTTGTTGGTGCATAATTTTTTTTTCTTT
DNA 2: AAAGAAAAAAAAATTATGCACCAACAAAAAAGGTTG
B2: GTGCAC_site10759 (dsDNA)
DNA 1: ATTAAATTTCCTTGAGTGCACATTTTGTTAAAATAT
DNA 2: ATATTTTAACAAAATGTGCACTCAAGGAAATTTAAT
B3: GTGCAC_site10688 (dsDNA)
DNA 1: AGTGACACCAAAGGGGTGCAATGAAATTAAAAATAT
DNA 2: ATATTTTTAATTTCATTGCACCCCTTTGGTGTCACT
B4: GTGCAC_site10385 (dsDNA)
DNA 1: GTGGTTGTAATGGTGGTGCATATTGTATATTATGTT
DNA 2: AACATAATATACAATATGCACCACCATTACAACCAC
B5: GTGCAC_site10505 (dsDNA)
DNA 1: ATTATTACTTTTTGAGTGCACATACACACAGACATA
DNA 2: TATGTCTGTGTGTATGTGCACTCAAAAAGTAATAAT
B6: GTGCAC_site10377 (dsDNA)
DNA 1: GAATAAATATTAAATGTGCACTTGAATAGATGTAAA
DNA 2: TTTACATCTATTCAAGTGCACATTTAATATTTATTC
B7: GTGCAC_site10559 (dsDNA)
DNA 1: TAAATATTTTTATGGGTGCGTTCTTTAGCGCAATTT
DNA 2: AAATTGCGCTAAAGAACGCACCCATAAAAATATTTA
B8: GTGCAC_site9511 (dsDNA)
DNA 1: TTTATATTTATGTAGGTGCATTTGTTTACAACATAT
DNA 2: ATATGTTGTAAACAAATGCACCTACATAAATATAAA
B9: GTGCAC_site9937 (dsDNA)
DNA 1: TTTCACATATATATGGTGCATATTTTATGTGTAAAT
DNA 2: ATTTACACATAAAATATGCACCATATATATGTGAAA
B10: GTGCAC_site10141 (dsDNA)
DNA 1: ACCCATTTTAATTTAGTGCACATTTTACCTTTATAC
DNA 2: GTATAAAGGTAAAATGTGCACTAAATTAAAATGGGT
B11: GTGCAC_site9720 (dsDNA)
DNA 1: TATATTAAAAAAGAGGTGCATTCGTAAGAGGTTAAA
DNA 2: TTTAACCTCTTACGAATGCACCTCTTTTTTAATATA
B12: GTGCAC_site10397 (dsDNA)
DNA 1: ATATATAATAAACAGGTGCATTGTTTTATTTTGTAT
DNA 2: ATACAAAATAAAACAATGCACCTGTTTATTATATAT
B13: GTGCAC_site10429 (dsDNA)
DNA 1: TATAAGTGCTCAACGGTGCATTTATAGAAGTTAAAC
DNA 2: GTTTAACTTCTATAAATGCACCGTTGAGCACTTATA
B14: GTGCAC_site10403 (dsDNA)
DNA 1: CTGTAAAATGTGATGGTGCATATTAATTTAGTTGTA
DNA 2: TACAACTAAATTAATATGCACCATCACATTTTACAG
B15: GTGCAC_site10547 (dsDNA)
DNA 1: CGTTGGTATTAAAAGGTGCAATGAAATAATATATTA
DNA 2: TAATATATTATTTCATTGCACCTTTTAATACCAACG
B16: GTGCAC_site10713 (dsDNA)
DNA 1: TTTTTTTTTCAAGAGGTGCGTGTATTTTAACAAAAA
DNA 2: TTTTTGTTAAAATACACGCACCTCTTGAAAAAAAAA
B17: GTGCAC_site10569 (dsDNA)
DNA 1: TACTATTATAAATATGTGCACTTCAATAATATACTA
DNA 2: TAGTATATTATTGAAGTGCACATATTTATAATAGTA
B18: GTGCAC_site10388 (dsDNA)
DNA 1: ATTATATTTATGTTGGTGCATTATACATGAAATTTA
DNA 2: TAAATTTCATGTATAATGCACCAACATAAATATAAT
B19: GTGCAC_site10187 (dsDNA)
DNA 1: TTAAAAAATAACAAGGTGCAAATAGGTTTATAAAAT
DNA 2: ATTTTATAAACCTATTTGCACCTTGTTATTTTTTAA
B20: GTGCAC_site10014 (dsDNA)
DNA 1: TTTACCTCTTCAATGGTGCAATAACTCAAAAATTTG
DNA 2: CAAATTTTTGAGTTATTGCACCATTGAAGAGGTAAA
B21: GTGCAC_site9418 (dsDNA)
DNA 1: ATGATATATTTAATAGTGCACTAATTAAAATTATTA
DNA 2: TAATAATTTTAATTAGTGCACTATTAAATATATCAT
B22: GTGCAC_site9729 (dsDNA)
DNA 1: GAACAAATTAAATAGGTGCATTAACATGTTCTATTT
DNA 2: AAATAGAACATGTTAATGCACCTATTTAATTTGTTC
B23: GTGCAC_site10275 (dsDNA)
DNA 1: AATATTCATATGCAGGTGCATTAATTTTTATTAATT
DNA 2: AATTAATAAAAATTAATGCACCTGCATATGAATATT
B24: GTGCAC_site9557 (dsDNA)
DNA 1: TTTTTATGGACTATGGTGCATTATATATAAATGAAA
DNA 2: TTTCATTTATATATAATGCACCATAGTCCATAAAAA
B25: GTGCAC_site9914 (dsDNA)
DNA 1: TGGCTTTCCCTGCCGGTGCATTAACATTTTTTACAT
DNA 2: ATGTAAAAAATGTTAATGCACCGGCAGGGAAAGCCA
B26: GTGCAC_site9835 (dsDNA)
DNA 1: ATTTAAAAGTTGGTAGTGCATTAAAAATAACAAAAA
DNA 2: TTTTTGTTATTTTTAATGCACTACCAACTTTTAAAT
B27: GTGCAC_site10146 (dsDNA)
DNA 1: GAGGTACATTAATTAGTGCATTAAAATTTTTATCCT
DNA 2: AGGATAAAAATTTTAATGCACTAATTAATGTACCTC
B28: GTGCAC_site10002 (dsDNA)
DNA 1: TATAAGGCAATAATAGTGCACTAAGATATATAATGA
DNA 2: TCATTATATATCTTAGTGCACTATTATTGCCTTATA
B29: GTGCAC_site10285 (dsDNA)
DNA 1: CATAAATAAGCTTTAGTGCATTATATTTAAATTTTT
DNA 2: AAAAATTTAAATATAATGCACTAAAGCTTATTTATG
B30: GTGCAC_site10253 (dsDNA)
DNA 1: TTTTTTTTTTTGATGGTGCAATATATTAAATAGAAA
DNA 2: TTTCTATTTAATATATTGCACCATCAAAAAAAAAAA
B31: GTGCAC_site9795 (dsDNA)
DNA 1: B18 DNA 1 with T3C, A25G, A30G, A32T
DNA 2: B18 DNA 2 with T5A, T7C, T12C, A34G
B32: GTGCAC_site10254 (dsDNA)
DNA 1: GTATATAAATAAATAGTGCATTATTAAAAATAATGT
DNA 2: ACATTATTTTTAATAATGCACTATTTATTTATATAC

These binders were tested against T1, SIP2 D1 (Plasmodium falciparum, UniProt C6KSN9 177-235) (assay: gcPBM; about 25 ug protein; PBS, 1% milk, 0.2 mg/ml BSA, salmon testes DNA, 0.03% Triton X-100). Conditions: tags: N-terminal GST (pGEX-4T-1), kept; label: surface-attached array probe.
T1 sequence: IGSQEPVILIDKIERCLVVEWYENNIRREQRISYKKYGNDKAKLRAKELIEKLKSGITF

Point of comparison: B10, binding signal 10.5 ln median PBM intensity, better of two orientations. Against it:
- B1 — lower, 10.2 ln median PBM intensity, better of two orientations
- B2 — higher, 10.7 ln median PBM intensity, better of two orientations
- B3 — higher, 10.6 ln median PBM intensity, better of two orientations
- B4 — higher, 10.7 ln median PBM intensity, better of two orientations
- B5 — higher, 10.6 ln median PBM intensity, better of two orientations
- B6 — lower, 10.3 ln median PBM intensity, better of two orientations
- B7 — lower, 10.4 ln median PBM intensity, better of two orientations
- B8 — lower, 10.3 ln median PBM intensity, better of two orientations
- B9 — the same, 10.5 ln median PBM intensity, better of two orientations
- B11 — higher, 10.6 ln median PBM intensity, better of two orientations
- B12 — the same, 10.5 ln median PBM intensity, better of two orientations
- B13 — higher, 10.8 ln median PBM intensity, better of two orientations
- B14 — higher, 10.8 ln median PBM intensity, better of two orientations
- B15 — higher, 10.7 ln median PBM intensity, better of two orientations
- B16 — lower, 10.3 ln median PBM intensity, better of two orientations
- B17 — lower, 10.4 ln median PBM intensity, better of two orientations
- B18 — lower, 10.2 ln median PBM intensity, better of two orientations
- B19 — lower, 10.3 ln median PBM intensity, better of two orientations

The binders below were run against AP2-I D3 (Plasmodium falciparum, UniProt Q8IJW6 910-1027) in the same assay as above. Conditions: tags: N-terminal GST (pGEX-4T-1), kept; label: surface-attached array probe.

Point of comparison: B27, binding signal 12.2 ln median PBM intensity, better of two orientations. Against it:
- B20 — higher, 12.3 ln median PBM intensity, better of two orientations
- B21 — higher, 12.4 ln median PBM intensity, better of two orientations
- B22 — the same, 12.2 ln median PBM intensity, better of two orientations
- B23 — the same, 12.2 ln median PBM intensity, better of two orientations
- B24 — higher, 12.3 ln median PBM intensity, better of two orientations
- B25 — higher, 12.3 ln median PBM intensity, better of two orientations
- B26 — the same, 12.2 ln median PBM intensity, better of two orientations
- B28 — higher, 12.3 ln median PBM intensity, better of two orientations
- B29 — the same, 12.2 ln median PBM intensity, better of two orientations
- B30 — the same, 12.2 ln median PBM intensity, better of two orientations
- B31 — the same, 12.2 ln median PBM intensity, better of two orientations
- B32 — the same, 12.2 ln median PBM intensity, better of two orientations
